± gives the uncertainty stated by the source.
test: protein stability index of a GFP-peptide fusion (yeast GPS) (PSI 1-4); higher = more stable; sorted into four equal gates, so the index is relative within each strain; conditions: pdr5∆
In short: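 Tiled yeast protein peptides of 17 residues were each joined downstream of GFP, on plasmids that also express Cherry. The pooled library was maintained in yeast, and mid-log cultures in leucine-free medium were sorted into four equal gates on the GFP/Cherry ratio. Plasmids from every gate were amplified by PCR and sequenced on Illumina, with barcodes linking reads to strains. The protein stability index of a peptide is its gate-number-weighted read frequency summed over the gates.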

Row | Sequence | protein stability index
1 | LVGRLRKCETQKQWDDI [YCS4] | 1.74 ± 0.057
2 | LVHTQIRKTPLAQKKAH [RPL3] | 1.38 ± 0.049
3 | LVIKSGKYTLGYKSTVK [RPL30] | 2.96 ± 0.061
4 | LVKTKELIKNYITARIM [FAS1] | 2.91 ± 0.19
5 | LVSLLDENDSKKNNAAS [YAR002W/NUP60] | 2.92 ± 0.071
6 | LVSSASQQLLEILVTEL [RPN2] | 2.27 ± 0.058
7 | LWALLNFLLPDIFGDSE [ISW2] | 1.98 ± 0.05
8 | LWDVATGETYQRFVGHK [ASC1] | 3.42 ± 0.17
9 | LWSIHPSRQFDHYESNQ [SRB8] | 2.24 ± 0.068
10 | LYAERVQDRGLSAVAQA [RPS3] | 3.28 ± 0.065
11 | LYDHWDKYHEQWIKFLL [SSN8] | 3.1 ± 0.13
12 | LYFEIIHGVLKNVDREV [FAS2] | 2.04 ± 0.099
13 | LYGKRFFPYYVHTIIAG [PRE7] | 1.23 ± 0.039
14 | LYKFQNFQDLSYLSETL [YML103C/NUP188] | 2.87 ± 0.08
15 | LYKTFFKRNAVFVGTIF [QCR9] | 1.36 ± 0.051
16 | LYNFLHKYVLTLQLYMV [RGR1] | 1.43 ± 0.042
17 | LYPCYFDINRSHKEGRR [SEC65] | 1.93 ± 0.16
18 | LYQDMAARHRARFRSIH [RPL20A] | 2.71 ± 0.048
19 | LYRSIESGEFDFDLFKE [YJL039C/NUP192] | 2.93 ± 0.1
20 | MAKDIEISASESKFILE [RRP45] | 3.06 ± 0.14
21 | MALKKNTHNKSTKRVTK [POP7] | 2.73 ± 0.11
22 | MAPVKSQESINQKLALV [RPL30] | 2.53 ± 0.14
23 | MAQRTLKNKYESYDAAL [FAS2] | 3.059 ± 0.017
24 | MASGSTTFTKVAAKWNT [PRP8] | 2.52 ± 0.069
25 | MATPSFGNSSPQLTFTH [YML103C/NUP188] | 2.1 ± 0.068

Row | Sequence | protein stability index
26 | MEADPSLHPLFEQFEKF [RPN9] | 2.84 ± 0.061
27 | MEDKISEFLNVPFESLQ [YIL149C/MLP2] | 3.35 ± 0.079
28 | MEDPPSTVSGELNDNPA [YMR153W/NUP53] | 2.81 ± 0.054
29 | MELLTQMDGFDNLGQTK [RPT4] | 3.56 ± 0.11
30 | MEMSEKIQFILEQMELS [RPN5] | 2.65 ± 0.24
31 | MERFSVLCNSNISKSRA [RRP6] | 2.46 ± 0.096
32 | MESIGSDILTAEKMRGN [RRP4] | 3.43 ± 0.12
33 | MFGIRSGNNNGGFTNLT [YDL088C/ASM4] | 3.41 ± 0.059
34 | MFIEEPTRMVRVAKGSG [SRP54] | 2.95 ± 0.23
35 | MFTATMTPVIEKIAAGY [PRP28] | 1.81 ± 0.11
36 | MGAINNNIPSLTSFAEE [SNF6] | 3.43 ± 0.1
37 | MGRMHSAGKGISSSAIP [RPS13] | 2.61 ± 0.068
38 | MHRKSLRRASATVPSAP [YAR002W/NUP60] | 2.82 ± 0.092
39 | MIELICSSATVPKHMLD [AAR2] | 2.26 ± 0.078
40 | MIFETIVDGKLKTEKIF [FAS1] | 2.21 ± 0.12
41 | MKESVVEINSSESDLDE [ESC2] | 3.06 ± 0.086
42 | MKVEVDSFSGAKIYPGR [RPL24B] | 3.36 ± 0.15
43 | MKYIQTEQQIEIPEGVT [RPL9B] | 2.8 ± 0.063
44 | MLGEDEGNTVLEKGNNP [SWP82] | 3.22 ± 0.19
45 | MLPGSSNGGGKVKPIRG [RPO31] | 3.36 ± 0.13
46 | MLRTVTSKTVSNQFKRS [COR1] | 2.9 ± 0.092
47 | MLSFCPSCNNMLLITSG [RPC11] | 2.97 ± 0.13
48 | MLVDLNVPWPQNSYADK [RPP1] | 1.08 ± 0.14
49 | MLWGGASMLGLFVFTEG [QCR10] | 1.82 ± 0.11
50 | MNAGGLFGAKPQNTTAT [YGR119C/NUP57] | 3.29 ± 0.059

Row | Sequence | protein stability index
51 | MNECIADQDMEDEDMVD [ESC2] | 3.35 ± 0.11
52 | MNEMCKKINAKEKLIGW [RPN8] | 3.13 ± 0.056
53 | MNIKPVQKQTRAGQRTR [RPS2] | 2.81 ± 0.11
54 | MNKIFTIFKSGEIDFIK [YML103C/NUP188] | 2.62 ± 0.054
55 | MNVQDRRRLLGPAAAKP [MTR3] | 3.1 ± 0.11
56 | MPGGYFHSEISPDSTVN [YAR002W/NUP60] | 3 ± 0.095
57 | MPLKILLATKQHDSSAN [CSN12] | 1.97 ± 0.044
58 | MPRLEEIDDFNDIDDLD [SEC65] | 3.09 ± 0.1
59 | MQLEEELMKLDGTEYVL [MED6] | 3.4 ± 0.11
60 | MQNSKVESVCQKLDILV [SMC4] | 2.13 ± 0.059
61 | MQPFDSGHDDLVHDVVY [YGL100W/SEH1] | 3.43 ± 0.11
62 | MRAKWRKKRTRRLKRKR [RPL41A] | 3.06 ± 0.13
63 | MSEEGPQVKIREASKDN [RPB3] | 2.44 ± 0.039
64 | MSFIFPSYAERQSSDES [YML031W/NDC1] | 2.04 ± 0.048
65 | MSGLPPPPPGFEEDSDL [PRP8] | 3.37 ± 0.083
66 | MSIDEEDKDSESFSEVC [YCG1] | 2.34 ± 0.09
67 | MSLKKCQEEVSTIEKDM [SMC2] | 2.73 ± 0.12
68 | MSNVVQARDNSQVFGVA [RPS14A] | 2.11 ± 0.056
69 | MSSQIIDRPKHELSRAE [SMD2] | 3.46 ± 0.12
70 | MSVKPIDNYITNSVRLF [SRP21] | 1.91 ± 0.06
71 | MSYVVRILSTLDRELLK [RPT3] | 2.24 ± 0.1
72 | MTDIWNTLIPESSLTIS [ECM29] | 2.46 ± 0.054
73 | MTEHETKDKAKKIREIY [BRR2] | 2.69 ± 0.11
74 | MTIPHMKYAVSKTSENK [SIR2] | 3.07 ± 0.16
75 | MTTEDPDSNHLSSETGI [SRB4] | 2.85 ± 0.2

Row | Sequence | protein stability index
76 | MVHLYSIVEECDARFDE [RPC17] | 2.94 ± 0.078
77 | MVLYKRKPILLPDPKPL [ITC1] | 2.85 ± 0.065
78 | MVNSHGIRYIRLKQVFN [NNF1] | 1.67 ± 0.04
79 | MVVNGPIPDARNAALRA [SCL1] | 2.72 ± 0.11
80 | MYNGKDRAQNSYQPMYQ [SSN3] | 2.48 ± 0.23
81 | MYQMITMGGNAELELVD [SMC4] | 2.47 ± 0.1
82 | NAAPANVTGGKAANFIQ [SWI1] | 1.86 ± 0.045
83 | NAARKAEASGEAAEEAE [RPS9B] | 3.39 ± 0.24
84 | NAASGSNSNVTNPSSIF [YOR098C/NUP1] | 2.74 ± 0.047
85 | NAEATKEEFSSAENRDE [CSE2] | 3.25 ± 0.086
86 | NAGTNDNSFNELTDNMS [MCD1] | 3.13 ± 0.076
87 | NAIRIGELFLNESWKSS [SRP72] | 3.21 ± 0.083
88 | NAKIIDAEVAQFLEQGL [SRP68] | 2.59 ± 0.045
89 | NALDKLRNNLNSLIEEI [YCG1] | 3.26 ± 0.1
90 | NASKVISTPIINAVLVN [RPO31] | 2.19 ± 0.14
91 | NATEVQKESDAKNETNS [ITC1] | 3.05 ± 0.11
92 | NAYASFLQRQGKLEVPG [RPS19A] | 3.24 ± 0.19
93 | NCEYEDPPNEGDPFDYK [RPB3] | 3.4 ± 0.12
94 | NCKKKKKRKKKNKSAID [RMP1] | 2.67 ± 0.13
95 | NDFFDNGDNLYGNDEEV [RPN4] | 1.62 ± 0.29
96 | NDFFPGEVVYLRKQKDS [ITC1] | 1.39 ± 0.059
97 | NDFKKIGRENENENEDD [POP5] | 3.28 ± 0.097
98 | NDHSKSANPKKTTITRV [SWI3] | 3.09 ± 0.092
99 | NDIKLFVDDTNVYRVTV [PRP8] | 2.63 ± 0.091

Reference: the supplement of paper PMC9732359
